Measured values from patent publication US20190112375A1 (Bristol-Myers Squibb, published 2019).
Changes are numbered by the printed parent chain. Names may count otherwise. Values belong to the binder of their own block, whether it stands above or below them.

Experiments:
[1] = target: T1, recombinant human TIGIT (rhTIGIT/Fc) (human, UniProt Q495A1 22-141); assay: SPR, mAb captured on anti-kappa chip, rhTIGIT/Fc analyte
T1 construct: also called TIGIT antigen (rhTIGIT/Fc); not shown: Fc part
T1 sequence: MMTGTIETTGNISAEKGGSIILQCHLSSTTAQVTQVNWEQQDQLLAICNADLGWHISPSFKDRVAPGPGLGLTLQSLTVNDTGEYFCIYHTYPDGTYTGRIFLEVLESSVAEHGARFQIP
Experimental: Binding of anti-huTIGIT antibodies to soluble human TIGIT was determined by BIACORE® surface plasmon resonance (SPR) analysis. […] The capture concentration of the mAb/volume was 2-40 μg/mL (5 μL at 10 μL/min). The antigen association time was 5 minutes at 15 μL/min, the antigen dissociation time was 6 minutes, and regeneration was performed with 50 mM HCl/50 mM NaOH (12 μL each at 100 μL/min).

[2] = target: T2, human TIGIT (soluble, SPR; construct not stated) (human, UniProt Q495A1 22-141, limits assumed); assay: SPR
T2 construct: whole entry named; also called huTIGIT
T2 sequence: T1 sequence

[3] = target: T2, human TIGIT (soluble, SPR; construct …); assay: SPR, full titration curves, subcloned and purified antibody
human TIGIT on cells [4] = target: T3, human TIGIT on cells (human, UniProt Q495A1 22-244); assay: cell-based or functional assay
T3 sequence: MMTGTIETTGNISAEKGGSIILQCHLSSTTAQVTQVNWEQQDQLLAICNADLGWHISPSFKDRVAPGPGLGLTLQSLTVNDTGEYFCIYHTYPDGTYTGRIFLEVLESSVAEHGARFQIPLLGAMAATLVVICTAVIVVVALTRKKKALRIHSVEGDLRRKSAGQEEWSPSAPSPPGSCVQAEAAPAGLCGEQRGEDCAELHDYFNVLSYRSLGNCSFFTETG

cynomolgus monkey TIGIT = target: T4, cynomolgus monkey TIGIT (cynomolgus monkey); assay: SPR
T4 construct: also called cyno TIGIT

[5] = target: T2, human TIGIT (soluble, SPR; construct …); assay: SPR; remark: listed apart in the source
[6] = target: T5, cynomolgus monkey TIGIT on cells (cynomolgus monkey, UniProt A0A7N9I9V4 89-312); assay: method not stated; follows the sentence on TIGIT expressed on CHO cells; monkey TIGIT; KD, method not stated
T5 construct: whole, on cells; also called TIGIT from cynomolgus monkeys expressed on CHO cells; cyno TIGIT on primary cells

human TIGIT on cells [7] = target: T3, human TIGIT on cells; assay: method not stated; follows the sentence on TIGIT expressed on CHO cells; human TIGIT; KD, method not stated
[8] = target: T5, cynomolgus monkey TIGIT on cells; assay: binding to monkey CD8+ T cells; monkey CD8+ T cells; upper end of the range
human TIGIT on cells [9] = target: T3, human TIGIT on cells; assay: binding to human CD8+ T cells; human CD8+ T cells
[10] = target: T6, hCD32a-H131 (FcγRIIA-H131) (human, UniProt P12318 36-218, limits assumed); assay: Fcγ receptor binding as % of theoretical maximum response (% Rmax), two lots, two concentrations (10 µM, 1 µM); no negative control shown
T6 sequence (looked up): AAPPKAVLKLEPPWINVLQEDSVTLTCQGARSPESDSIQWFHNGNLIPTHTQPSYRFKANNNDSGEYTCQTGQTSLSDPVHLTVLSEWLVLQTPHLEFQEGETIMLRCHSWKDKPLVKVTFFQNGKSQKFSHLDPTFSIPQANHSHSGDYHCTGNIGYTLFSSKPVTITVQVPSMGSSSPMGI

[11] = target: hCD16a-V158 (FcγRIIIA-V158) (human, UniProt P08637 17-208); assay: as above
[12] = target: hCD16b-NA2 (FcγRIIIB-NA2) (human, UniProt O75015 17-200, limits assumed); assay: as above
[13] = target: T7, huTIGIT-muFc fusion protein (human; mouse, UniProt Q495A1 22-141); assay: blockade of TIGIT-mFc (at its EC90, 14.1 nM) binding to P815 cells over-expressing human PVR; competitor: human PVR; P815 cells over-expressing human PVR; TIGIT-mFc at EC90 14.1 nM
T7 construct: also called TIGIT-mFc; not shown: mouse IgG2a Fc, at the C-terminus of the TIGIT part
T7 sequence: T1 sequence

[14] = target: T7, huTIGIT-muFc fusion protein; assay: blockade of TIGIT-mFc (at its EC90, 12.8 nM) binding to P815 cells over-expressing human Nectin-2; competitor: human Nectin-2; P815 cells over-expressing human Nectin-2; TIGIT-mFc at EC90 12.8 nM
[15] = target: T5, cynomolgus monkey TIGIT on cells; assay: binding to monkey CD8+ T cells; monkey CD8+ T cells; lower end of the range

B2: 15A6 IgG1.1f (antibody)
heavy: QLQLQESGPGLVKPSETLSLTCTVSGGSISSSRYFWGWIRQPPGKGLEWIGYIYYRGSTYYNPSLKSRVTIAVDTSKNQFSLKLSSVTAADTAVYYCASSSAWYFDYWGQGNLVTVSSASTKGPSVFPLAPSSKSTSGGTAALGCLVKDYFPEPVTVSWNSGALTSGVHTFPAVLQSSGLYSLSSVVTVPSSSLGTQTYICNVNHKPSNTKVDKRVEPKSCDKTHTCPPCPAPEAEGAPSVFLFPPKPKDTLMISRTPEVTCVVVDVSHEDPEVKFNWYVDGVEVHNAKTKPREEQYNSTYRVVSVLTVLHQDWLNGKEYKCKVSNKALPSSIEKTISKAKGQPREPQVYTLPPSREEMTKNQVSLTCLVKGFYPSDIAVEWESNGQPENNYKTTPPVLDSDGSFFLYSKLTVDKSRWQQGNVFSCSVMHEALHNHYTQKSLSLSPG
VL: not shown
notes: kappa light chain
Kd [2]: 1.5 nM
koff [2]: 0.0016 s⁻¹
kon [2]: 1.1e+06 M⁻¹ s⁻¹

B4: 15A6 A72S & N112T IgG1.1f (antibody)
heavy: B2 heavy with A72S, N112T
VL: not shown
notes: kappa light chain; also called 15A6 VH domain A72S N112T
Kd [2]: 2 nM
koff [2]: 0.002 s⁻¹
kon [2]: 1e+06 M⁻¹ s⁻¹

B5: 15A6 A72S IgG1.1f (antibody)
heavy: B2 heavy with A72S
VL: not shown
notes: kappa light chain; also called 15A6 VH domain A72S
Kd [2]: 1.5 nM
koff [2]: 0.0017 s⁻¹
kon [2]: 1.1e+06 M⁻¹ s⁻¹

B8: 22G2 IgG1.1f (antibody)
heavy: QVHLQESGPGLVKPSETLSLTCTVSGGSVSSGIYYWSWIRQPPGKGLEWIGYIYYSGSTNYNPSLKSRVTISVDTSKNQFSLKLSSVTAADTAVYYCARDYYVSGNYYNVDYYFFGVDVWGQGTTVTVSSASTKGPSVFPLAPSSKSTSGGTAALGCLVKDYFPEPVTVSWNSGALTSGVHTFPAVLQSSGLYSLSSVVTVPSSSLGTQTYICNVNHKPSNTKVDKRVEPKSCDKTHTCPPCPAPEAEGAPSVFLFPPKPKDTLMISRTPEVTCVVVDVSHEDPEVKFNWYVDGVEVHNAKTKPREEQYNSTYRVVSVLTVLHQDWLNGKEYKCKVSNKALPSSIEKTISKAKGQPREPQVYTLPPSREEMTKNQVSLTCLVKGFYPSDIAVEWESNGQPENNYKTTPPVLDSDGSFFLYSKLTVDKSRWQQGNVFSCSVMHEALHNHYTQKSLSLSPG
light: not shown
notes: effectorless IgG1.1f (L234A, L235E, G237A, A330S, P331S, EU numbering); also called anti-TIGIT mAb 22G2 IgG1.1f; antibody 22G2 IgG1.1f; copies: 2 + 2
Kd [6]: 0.07 nM
Kd [2]: 0.07 nM
koff [2]: 0.00013 s⁻¹
kon [2]: 2e+06 M⁻¹ s⁻¹
Kd (human TIGIT on cells [7]): 0.09 nM
EC50 [8]: ≤ 0.58 nM
EC50 (human TIGIT on cells [9]): 0.55 nM
binding result [10]: no binding (tested: 10 µM)
binding result [11]: no binding (tested: 10 µM)
binding result [12]: no binding (tested: 10 µM)
IC50 [13]: 15.4 nM
IC50 [14]: 5.72 nM
EC50 [15]: ≥ 0.28 nM

B9: 22G2 H3Q IgG1.1f (antibody)
heavy: B8 heavy with H3Q
light: not shown
notes: kappa constant tied to the 22G2 light chain only by claim 4; also called 22G2 VH domain H3Q, isotype IgG1.1f
Kd [2]: 0.08 nM
koff [2]: 0.00016 s⁻¹
kon [2]: 2e+06 M⁻¹ s⁻¹

B10: 15A6 (antibody, V domains shown)
VH: QLQLQESGPGLVKPSETLSLTCTVSGGSISSSRYFWGWIRQPPGKGLEWIGYIYYRGSTYYNPSLKSRVTIAVDTSKNQFSLKLSSVTAADTAVYYCASSSAWYFDYWGQGNLVTVSS
VL: not shown
notes: fully human mAb from KM mouse hybridoma, kappa light chain; also called anti-huTIGIT mAb 15A6
Kd [3]: 1.5 nM
Kd [1]: 19.9 nM
koff [1]: 0.00404 s⁻¹
kon [1]: 202000 M⁻¹ s⁻¹

More lines, now with the values ahead:

Kd [1]: 28.7 nM
koff [1]: 0.00144 s⁻¹
kon [1]: 50300 M⁻¹ s⁻¹
B1: 11G11 (antibody, V domains shown)
VH: QLQLQESGPGLVKPSETLSLTCTVSGGSISSSSHYWGWIRQPPGKGLEWIGNIFYSGHTYYNPSLKSRVTISVDTSKNQFSLKLSSVTAADTAVYYCARQGLLWFGGLSPYYFDYWGQGTLVTVSS
VL: EIVLTQSPATLSLSPGERATLSCRASQSVSSYLAWYQQKPGQAPRLLIYDASNRATGIPARFSGSGSGTDFTLTISSLEPEDFAVYYCQQRSNWPTFGQGTKLEIK
notes: fully human mAb from KM mouse hybridoma; also called anti-huTIGIT mAb 11G11

Kd [2]: 1.7 nM
koff [2]: 0.0019 s⁻¹
kon [2]: 1.1e+06 M⁻¹ s⁻¹
B3: 15A6 N112T IgG1.1f (antibody)
heavy: B2 heavy with N112T
VL: not shown
notes: kappa light chain; also called 15A6 VH domain N112T

Kd [3]: 0.09 nM
Kd [1]: 0.17 nM
koff [1]: 0.000403 s⁻¹
kon [1]: 2.37e+06 M⁻¹ s⁻¹
Bioassay of Jurkat/hTIGIT cells, block of PVR signaling, IC50 (human TIGIT on cells [4]): 0.21 nM
Kd (cynomolgus monkey TIGIT): 0.09 nM
Kd [5]: 0.06 nM
B6: 22G2 (antibody, V domains shown)
VH: QVHLQESGPGLVKPSETLSLTCTVSGGSVSSGIYYWSWIRQPPGKGLEWIGYIYYSGSTNYNPSLKSRVTISVDTSKNQFSLKLSSVTAADTAVYYCARDYYVSGNYYNVDYYFFGVDVWGQGTTVTVSS
VL: EIVLTQSPATLSLSPGERATLSCRASQSVSSYLAWYQQKPGQAPRLLIYDASNRATGIPARFSGSGSGTDFTLTISSLEPEDFAVYYCQQRSNWPPLFTFGPGTKVDIK
notes: fully human mAb from KM mouse hybridoma, kappa light chain; also called anti-huTIGIT mAb 22G2; antibody 22G2

Kd [2]: 0.16 nM
koff [2]: 0.0003 s⁻¹
kon [2]: 1.9e+06 M⁻¹ s⁻¹
B7: 22G2 H3Q IgG1 (antibody)
heavy: B6 VH with H3Q
light: not shown
notes: isotype printed as IgG1 (perhaps IgG1f); kappa constant tied to the 22G2 light chain only by claim 4; also called 22G2 VH domain H3Q, isotype IgG1; not shown: human IgG1 constant region

Kd [1]: 38.1 nM
koff [1]: 0.00651 s⁻¹
kon [1]: 171000 M⁻¹ s⁻¹
B11: 10D7 (antibody, V domains shown)
VH: QGQLVQSGAEVKKPGSSVKVSCKASGGIFRNYAISWVRQAPGQGLEWMGGIIPFFGTANYAQKFQGRVTITADESTSTAYMELSSLRSEDTAVYYCARGGAAAGTTRYGYYYYGMDVWGQGTTVTVSS
VL: DIQMTQSPSSLSASVGDRVTITCRASQGISSWLAWYQQKPEKAPKSLIYAASSLQSGVPSRFSGSGSGTDFTLTISSLQPEDFATYYCQQYNSYPITFGQGTRLEIK
notes: fully human mAb from KM mouse hybridoma; also called anti-huTIGIT mAb 10D7
